Experimental data reported in patent US20250018038A1 (UNIVERSITY OF CHICAGO, published 2025).
Residue numbers refer to the chain shown, from its start. Values belong to the binder of their own block, whether it stands above or below them.

Experiments:
Bor-N = target: T1, Bor-N (Biotinylated Avi tag, held on neutravidin; not in the letters); assay: single point protein ELISA, 50 nM immobilised target
T1 construct: also called Bor N: 20-88; Borealin N-terminal domain; not shown: Avi tag, and any purification tag or linker
T1 chain: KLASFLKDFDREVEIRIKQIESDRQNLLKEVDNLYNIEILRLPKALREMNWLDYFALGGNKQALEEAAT
Protocol: (§1) To rapidly reconfirm the binding and specificity of the obtained Fabs after reformatting into the expression vectors single-point Fab ELISA was performed (FIG. 2-3). Briefly, 50 nM Avi-tagged targets were immobilized on the prepared NAV-coated and blocked with 0.5% BSA in PBS 96-well ELISA plates. The target coated plates were washed with appropriate buffer (TBST or PBST) and were incubated with 200 nM Fab for 20 minutes and then washed. The washed plates were incubated with protein L conjugated with HRP (1:5000 diluted in TBST) for 30 minutes. Plates were washed and the reaction was developed using the TMB chromogenic substrate (Thermofisher) and subsequently quenched with 1M HCl. Absorbance was read at 450 nm on Epoch plate reader.

[1] = target: T2, Survivin (purified recombinant Survivin protein) (human, UniProt O15392 1-140, limits assumed, biotinylated on the Avi-tag by BirA (antigens for selection and ELISA)); assay: multipoint protein ELISA: 50 nM immobilised target, 3-fold serial dilutions of purified Fab, protein L-HRP, sigmoidal fit
T2 construct: also called Baculoviral IAP repeat-containing protein 5; BIRC5
Protocol: Protein based multipoint ELISA was performed to estimate the affinity of the generated unique Fabs to their cognate antigens. A fixed concentration of the immobilized target (50 nM) on ELISA plate was incubated with 3-fold serial dilutions of the purified Fabs starting from […] for 15 min. The plates were washed and the bound antigen-Fab complexes were incubated with H1RP-conjugated protein L (1:5000 dilution in PBST). As with phage ELISA, the plates were again washed, developed with TMB substrate and quenched with 1.0 M HCl, and absorbance (A450) was determined. To determine the affinity, the data were fitted in a non-linear sigmoidal function with variable slope in GraphPad PRISM and EC50 value was calculated (FIG. 2).

Bor-C = target: T3, Bor-C (Biotinylated Avi tag, held on neutravidin; not in the letters); assay: single point protein ELISA, 50 nM immobilised target
T3 construct: also called Bor C: 207-280; Borealin C-terminal domain; not shown: Avi tag, and any purification tag or linker
T3 chain: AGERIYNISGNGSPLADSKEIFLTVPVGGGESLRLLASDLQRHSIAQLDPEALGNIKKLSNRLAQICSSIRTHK
Protocol: as §1

[2] = target: T4, cell surface survivin on cancer cells (human, UniProt O15392 1-142); assay: flow cytometry of live cells, 200 nM Fab, anti-human F(ab')2-A647 secondary
T4 construct: whole, on cells
Protocol: Human or murine tumor cells were trypsinized, washed and resuspended in Flow buffer (1×PBS supplemented with 2% FBS) and added to a 96-well plate (#3799, Costar). 200 nM primary CPC Fab was mixed with 0.5M cells and incubated at 37 C for 20 min. […] Samples were analyzed by flow cytometry using CytoFLEX (Beckman Coulter) and mean fluorescence intensity (MFI) data was extracted using the FlowJo software (FIG. 5A-E, FIG. 6). Human peripheral blood mononuclear cells (PBMCs) derived from a single patient were used as a source of healthy human cells. PBMCs were counted, split and spun down 400×g 5 min. Cells were resuspended in Flow buffer (1×PBS supplemented with 2% FBS) and pre-incubated with TruStain FcX (1:20, Biolegend 422302) for 10 min at 37 C, followed by 200 nM primary Fab incubation at 37 for 20 min. […] Mean fluorescence intensity (MFI) data was extracted using the FlowJo software (FIG. 5F).

T2 sequence (O15392 1-140 limits assumed): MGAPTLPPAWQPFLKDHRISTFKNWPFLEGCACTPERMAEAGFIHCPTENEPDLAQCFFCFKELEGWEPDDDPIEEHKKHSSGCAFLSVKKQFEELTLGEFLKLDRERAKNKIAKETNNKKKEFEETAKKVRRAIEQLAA
T4 sequence (O15392 whole entry): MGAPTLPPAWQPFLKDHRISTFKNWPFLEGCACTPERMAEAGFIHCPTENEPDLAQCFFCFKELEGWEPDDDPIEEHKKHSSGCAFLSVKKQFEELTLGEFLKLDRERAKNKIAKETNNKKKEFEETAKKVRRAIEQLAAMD

binding result (Bor-N): no binding (tested: 200 nM)
B1: SUR-N-37 (Fab, V domains shown)
VH: EVQLVESGGGLVQPGGSLRLSCAASGFNVSYSSIHWVRQAPGKGLEWVASISSYYGSTSYADSVKGRFTISADTSKNTAYLQMNSLRAEDTAVYYCARSTYYSWYPYYYAMWHQHGMDYWGQGTLVTVSS
VL: DIQMTQSPSSLSASVGDRVTITCRASQSVSSAVAWYQQKPGKAPKLLIYSASSLYSGVPSRFSGSRSGTDFTLTISSLQPEDFATYYCQQSPMYSLITFGQGTKVEIKR
notes: also called SUR-N-37 Fab
EC50 [1]: 1 nM

binding result (Bor-N): no binding (tested: 200 nM)
binding result (Bor-C): no binding (tested: 200 nM)
B2: SUR-N-45 Fab (Fab, V domains shown)
VH: EVQLVESGGGLVQPGGSLRLSCAASGFNLSSSSIHWVRQAPGKGLEWVASISSYSGYTYYADSVKGRFTISADTSKNTAYLQMNSLRAEDTAVYYCARPHWNSSYFSGWAMDYWGQGTLVTVSS
VL: B1 VL with S91W, P92S, M93S, Y94K, L96P
binding result [2]: binds
